Data reported in publication PMC10810279, “Biophysical and structural characterization of a multifunctional viral genome packaging motor” (Nucleic Acids Research, 2023).
Values joined by “and” are separate entries in the source; they are usually repeats but may differ in a detail not shown here. Identical values can stand only once.

T1: lambda terminase holoenzyme ring (TerL•TerS2)5 (Escherichia phage Lambda, UniProt P03708)
T1 construct: gene A; assembled ring of five TerL•TerS2 protomers; with Terminase small subunit
T1 sequence (P03708 1-641): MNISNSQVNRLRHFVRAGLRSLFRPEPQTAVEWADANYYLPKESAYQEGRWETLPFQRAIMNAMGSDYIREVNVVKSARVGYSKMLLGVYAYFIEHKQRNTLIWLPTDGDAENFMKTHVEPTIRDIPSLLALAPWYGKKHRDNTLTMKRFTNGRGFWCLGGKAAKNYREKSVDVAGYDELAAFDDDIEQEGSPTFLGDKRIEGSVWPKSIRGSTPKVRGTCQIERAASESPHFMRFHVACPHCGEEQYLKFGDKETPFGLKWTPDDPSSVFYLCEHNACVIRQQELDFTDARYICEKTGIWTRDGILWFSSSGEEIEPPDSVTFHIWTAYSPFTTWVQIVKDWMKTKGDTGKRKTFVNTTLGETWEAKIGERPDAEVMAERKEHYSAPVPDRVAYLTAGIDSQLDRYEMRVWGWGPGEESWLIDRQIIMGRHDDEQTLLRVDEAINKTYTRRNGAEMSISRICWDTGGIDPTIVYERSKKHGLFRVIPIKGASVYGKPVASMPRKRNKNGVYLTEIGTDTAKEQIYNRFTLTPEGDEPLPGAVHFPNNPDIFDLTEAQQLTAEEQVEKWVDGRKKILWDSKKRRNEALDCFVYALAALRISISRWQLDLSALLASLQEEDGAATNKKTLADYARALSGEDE
T1 sequence (P03707 1-181 partner): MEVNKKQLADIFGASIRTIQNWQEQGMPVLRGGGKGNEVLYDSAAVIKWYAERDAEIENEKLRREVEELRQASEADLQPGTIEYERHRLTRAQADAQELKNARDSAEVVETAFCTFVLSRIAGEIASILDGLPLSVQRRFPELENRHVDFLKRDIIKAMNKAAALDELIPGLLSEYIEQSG

B1: bacteriophage λ terminase large subunit (TerL) (enzyme, UniProt P03708 1-641, looked up)
chain: T1 sequence (P03708 1-641)
notes: large catalytic terminase subunit TerL of bacteriophage lambda; Never tested as an isolated subunit, only as part of the protomer or ring; also called large terminase
B2: bacteriophage λ terminase small subunit (TerS) (natural protein, UniProt P03707 1-181, looked up)
chain: T1 sequence (P03707 1-181 partner)
notes: small DNA recognition terminase subunit TerS of bacteriophage lambda; Never tested as an isolated subunit, only as part of the protomer or ring; also called small terminase

Columns and labels:
[1] = target: T1, lambda terminase holoenzyme ring (TerL•TerS2)5; assay: ATPase assay, […] TLC, phosphorimaging; format: biochemical; conditions: labelled compound; 10 nM terminase; 50 mM Tris-HCl pH 9, 10 mM MgCl2, 60 mM NaCl, 2 mM spermidine, 37 °C
[2] = target: T1, lambda terminase holoenzyme ring (TerL•TerS2)5; assay: cryoEM 2D class averages (conformational change); format: binding; conditions: 1 mM ATPγS; no DNA mentioned; no 3D reconstruction
[3] = target: bacteriophage λ terminase protomer (TerL•TerS2) (bacteriophage λ) (UniProt P03708); assay: cryo-EM 2D class averages; purified terminase ring at 0.5 mg/ml with 1 mM ATPγS; no 3D reconstruction
[4] = target: bacteriophage λ terminase protomer (TerL•TerS2) (bacteriophage λ) (UniProt P03708); assay: cryo-EM 2D class averages; purified terminase ring at 0.5 mg/ml, no ligand (apo); no 3D reconstruction
[5] = target: bacteriophage λ terminase protomer (TerL•TerS2) (bacteriophage λ) (UniProt P03708); assay: native MS; charge detection mass spectrometry (CDMS) of the assembled ring, 300 mM ammonium acetate pH 8.34
[6] = target: bacteriophage λ terminase protomer (TerL•TerS2) (bacteriophage λ) (UniProt P03708); assay: SAXS; assembled terminase ring at 0.25, 0.50 and 0.80 mg/ml, 5°C; mass from the Porod-invariant volume; protomers to ring
[7] = target: the molecule itself; assay: cryo-EM 2D class averages; purified terminase ring at 0.5 mg/ml with 1 mM ATPγS; no 3D reconstruction
[8] = target: B1; assay: native MS; charge detection mass spectrometry (CDMS) of the terminase protomer, 200 mM ammonium acetate; conditions: both partners purified

Nc1ncnc2c1ncn2[C@@H]1O[C@H](COP(=O)(O)OP(=O)(O)OP(=O)(O)O)[C@@H](O)[C@H]1O [ATP]
Km [1]: 0.495 ± 0.07 µM

Nc1ncnc2c1ncn2[C@@H]1O[C@H](COP(=O)(O)OP(=O)(O)OP(O)(O)=S)[C@@H](O)[C@H]1O [ATPγS]
cryoEM 2D class averages (conformational change) [2]: we imaged the λ terminase ring bound to ATP-γS, a poorly hydrolyzed ATP analog

bacteriophage λ terminase protomer (TerL•TerS2) (from UniProt P03708 1-641; P03707 1-181) (complex)
stoichiometry N [3]: 5
stoichiometry N [4]: 5
stoichiometry N [5]: 5 protomers
stoichiometry N [6]: 5.1 and 4.2 and 4.4

B1
binding result [7]: binds

B2
binding result [8]: binds
